Patent US20240336681A1 (LUDWIG MAXIMILIANS UNIVERSIT T M NCHEN, published 2024)
Substitutions are numbered along the chain they refer to.

B1: 2D6-096 (scFv, V domains shown, not shown: small tags and cut ends)
VH: QVQLVESGGGLVQPGGSLRLSCAASGYTFTSYDINWVRQAPGKGLEWVGWIYPRDGSPKYNEKFKGRFTISADTSKNTAYLQMNSLRAEDTAVYYCARSVYYGTQFAYWGQGTLVTVSS
VL: DIQMTQSPSSLSASVGDRVTITCKSSQSLLNSRTRKNYLAWYQQKPGKAPKLLIYWASTRDSGVPSRFSGSGSGTDFTLTISSLQPEDFATYYCKQSFNLVTFGQGTKVEIK
notes: Standalone scFv; also called anti-CD47 scFv (2D6-096); VH3/VL3
B2: MSL-745 (bispecific antibody, part only; not given: anti-mesothelin IgG1 chains and linkers, V domains shown, not shown: another chain or arm of the molecule; large carriers; small tags and cut ends)
VH: QVELVQSGPEVKKPGSSVKVSCKASGYTFPSYDINWVRQRPGQCLEWMGGIYPRSGSPKYNEKFKGRVTITADTSTSTAYMELHSLRSEDTAVYYCARSVYYGTQFAYWGQGTLVTVSA
VL: DIVLTQSPSSLAVSLGERVTMSCKSSQSLLNSRTRKNYLAWYQQKPGQPPKLLIYWASTRDSGVPDRFSGSGSGTDFTLTISSLQAEDVAVYYCQQSFNLVTFGCGTKLEIK
B3: 2D6-022 (bispecific antibody, part only; not given: linkers and anti-TAA IgG1 chains, V domains shown, not shown: another chain or arm of the molecule; large carriers; small tags and cut ends)
VH: B2 VH with C44G, G50W, S55D
VL: B2 VL with Q95K, C105G
B4: 2D6-031 (bispecific antibody, part only; not given: linkers and anti-TAA IgG1 chains, V domains shown, not shown: another chain or arm of the molecule; large carriers; small tags and cut ends)
VH: B1 VH with T30P
VL: B1 VL
B5: 2D6-032 (bispecific antibody, part only; not given: linkers and anti-TAA IgG1 chains, V domains shown, not shown: another chain or arm of the molecule; large carriers; small tags and cut ends)
VH: B1 VH with T30P
VL: B1 VL with Q3V, S66D
B6: 2D6-000 (antibody, V domains shown)
VH: QVQLQQSGPELVKPGTSVTLSCKASGYTFPSYDINWMKQRPGQGLEWIGWIYPRDGSPKYNEKFKGKATLTVDTSSSTAYMELHSLTSEDSAVYFCARSVYYGTQFAYWGQGTLVTVSA
VL: DIVMSQSPSSLAVSAGEKVTMSCKSSQSLLNSRTRKNYLAWYQQKPGQSPKLLIYWASTRDSGVPDRFTGSGSGTDFTLTISSVQAEDLAVYYCKQSFNLVTFGAGTKLELK
notes: Constant regions come from the vectors pFUSE-CHIg-hG4 and pFUSE2-CLIg-hk; also called anti-CD47 IgG4 (2D6-000)
B7: 2D6-076 (antibody, IgG1, V domains shown)
VH: B2 VH with C44G, G50W, S55D
VL: B2 VL with C105G
notes: hIgG1 (humanized IgG1); only the variable domains are tied to the construct; also called VH2/VL2.7
B8: 2D6-005 (antibody, IgG4, V domains shown)
VH: B2 VH with C44G, G50W, S55D
VL: B1 VL with Q3V, M4L, I21M, T22S, F89I, Q105G, V109L
notes: hIgG4 (humanized IgG4), human kappa constant light chain from vector; only the variable domains are tied to the construct; also called VH2/VL1
B9: 2D6-066 (antibody, IgG1, V domains shown)
VH: B2 VH with C44G, G50W, Y52I, S55D
VL: B2 VL with L4M, Q95K, C105G
notes: hIgG1 (humanized IgG1); only the variable domains are tied to the construct; also called VH2.4/VL2
B10: 2D6-067 (antibody, IgG1, V domains shown)
VH: B2 VH with C44G, G50W, S55F
VL: B2 VL with L4M, Q95K, C105G
notes: hIgG1 (humanized IgG1); only the variable domains are tied to the construct; also called VH2.5/VL2
B11: 2D6-016 (antibody, IgG4, V domains shown)
VH: B1 VH with T30P
VL: B1 VL with Q3V, S66D
notes: hIgG4 (humanized IgG4); only the variable domains are tied to the construct; also called VH4/VL4
B12: 2D6-015 (antibody, IgG4, V domains shown)
VH: B1 VH with T30P
VL: B1 VL
notes: hIgG4 (humanized IgG4); only the variable domains are tied to the construct; also called VH4/VL3
B13: 2D6-004 (antibody, IgG4, V domains shown)
VH: B2 VH with P9A, Y27G, R40A, C44G, G50W, S55D, T74E, H84S, A119S
VL: B1 VL with Q3V, S66D
notes: also called VH1/VL4
B14: 2D6-059 (bispecific antibody, part only; not given: linkers and anti-TAA IgG1 chains, V domains shown, not shown: another chain or arm of the molecule; large carriers; small tags and cut ends)
VH: B2 VH
VL: B2 VL
B15: 2D6-056 (bispecific antibody, part only; not given: linkers and anti-TAA IgG1 chains, V domains shown, not shown: another chain or arm of the molecule; large carriers; small tags and cut ends)
VH: B2 VH with C44G
VL: B2 VL with C105G

The binders below were run against T1, recombinant C-terminally His-tagged human CD47 (extracellular domain) (human, UniProt Q08722 19-141) (assay: SPR, Biacore X100).
T1 construct: also called recombinantly expressed human CD47 extracellular domain
T1 sequence (Q08722 19-141): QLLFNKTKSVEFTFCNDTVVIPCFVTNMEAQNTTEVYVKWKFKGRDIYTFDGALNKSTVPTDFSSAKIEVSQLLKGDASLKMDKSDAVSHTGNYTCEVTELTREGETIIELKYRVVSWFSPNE

How did the koff turn out when B1 was run?
The koff was 0.00163 s⁻¹.

And the kon?
Its kon is 81500 M⁻¹ s⁻¹.

The binders below were run against recombinant C-terminally His-tagged human CD47 (extracellular domain) (human) (UniProt Q08722) (assay: SPR, Biacore X100; construct captured by anti-human Fc on CM5 chip, human CD47 extracellular domain as analyte, 1:1 fit).
Sequence of recombinant C-terminally His-tagged human CD47 (extracellular domain) (human) (Q08722 19-141): as above

With B2 as the binder, how does the Kd read?
The Kd was 0.578 µM.

With B3 as the binder, how does the Kd read?
Its Kd is 0.106 µM.

With B4 as the binder, how does the Kd read?
The Kd was 0.138 µM.

B5 was tested. Which Kd did it give?
Its Kd is 0.141 µM.

These binders were tested against T1, recombinant C-terminally His-tagged … in the same assay as above.
Experimental: (§1) Surface Plasmon Resonance (SPR) was used in addition to analyse binding of the different protein constructs to recombinantly expressed CD47 and to determine their affinity. Association (Kₒₙ) and dissociation (Koff) rate constants were determined by SPR using a Biacore™ X-100 (Cytiva). Using the Human antibody capture kit an anti-human Fc antibody was immobilized on a CM5 sensor chip in a covalent manner using the Amine coupling Kit according to manufacturer's instructions. Humanized anti-hCD47 IgGs were injected as ligand to reach a surface coverage of approximately 100 RU-400 RU. Recombinantly expressed human CD47 extracellular domain was used as analyte and injected in increasing concentrations (e. g. from 3.9 to 1000 nM), with standard association time of 120 s and dissociation time of 600 s. Experiments were performed in multi-cycle kinetics runs, with regeneration between sample injection with the respective regeneration buffer (3M MgCl2 for the human antibody capture kit). All reagents were diluted in HBS-EP+ buffer (Cytiva). Data are fit to a simple 1:1 interaction model using the global data analysis option available within BiaEvaluation 2.0.1 software. The dissociation constant (KD) was used as a value for the affinity and was calculated from the ratio between Koff and Kₒₙ.

How did the Kd turn out when B6 was run?
The Kd was 0.0561 µM.

For B7, which Kd is on record?
The Kd was 0.974 µM.

With B8 as the binder, how does the Kd read?
Its Kd is 0.176 µM.

Which Kd does the source give for B9 here?
Its Kd is 1.31 µM.

B10 was tested. Which Kd did it give?
The Kd was 0.219 µM.

How did the Kd turn out when B11 was run?
The Kd was 0.203 µM.

B12 was tested. Which Kd did it give?
The Kd was 0.311 µM.

These binders were tested against recombinant C-terminally His-tagged human CD47 (extracellular domain) (human) (UniProt Q08722) (assay: SPR, Biacore X100; analyte hCD47 31.25 to 2000 nM).

B2 was tested. Which koff did it give?
Its koff is 0.396 s⁻¹.

What about the kon of the same binder?
The kon was 685000 M⁻¹ s⁻¹.

These binders were tested against T2, human CD47 on cells (human, UniProt Q08722 19-323) (assay: flow cytometry on CD47-positive Expi293 cells, 50 nM antibody; MFI of the antibody over MFI of the isotype control).
T2 construct: also called CD47 on Molm-13, OVCAR-3, Suit-2 MSLN, HL-60 cells, red blood cells and CD47-transfected CHO cells
T2 sequence (Q08722 19-323): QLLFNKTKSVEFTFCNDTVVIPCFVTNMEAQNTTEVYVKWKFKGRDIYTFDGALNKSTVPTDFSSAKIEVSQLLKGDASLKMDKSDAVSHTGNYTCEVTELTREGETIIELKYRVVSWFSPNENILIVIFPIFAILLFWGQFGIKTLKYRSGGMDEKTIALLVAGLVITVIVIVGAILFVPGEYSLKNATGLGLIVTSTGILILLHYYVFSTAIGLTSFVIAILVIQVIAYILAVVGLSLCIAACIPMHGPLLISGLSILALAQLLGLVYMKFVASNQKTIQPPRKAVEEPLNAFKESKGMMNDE
Experimental: (§2) Initially, binding of anti-hCD47 IgG4, anti-hCD47 IgG1 antibodies and Fab domains were measured on CD47-expressing cells by flow cytometry. Cells were stained with 50 nM of antibody followed by staining with a secondary fluorescently labelled anti-human IgG Fc or light-chain antibody, and analyzed by flow cytometry. Binding was measured by calculating the median fluorescence intensity (MFI) ratio, by dividing MFI of the antibody by the MFI of the isotype control.

B13 was tested. Which MFI ratio did it give?
Its MFI ratio is 1.07.

B8 was tested. Which MFI ratio did it give?
The MFI ratio was 4.95.

With B11 as the binder, how does the MFI ratio read?
The MFI ratio was 3.42.

With B12 as the binder, how does the MFI ratio read?
The MFI ratio was 4.14.

Each binder was assayed against T2, human CD47 on cells (assay: flow cytometry on CD47-positive Expi293 cells; MFI of the antibody over MFI of the isotype control).
Experimental: as §2

Does B13 bind?
Result: no binding (tested: 50 nM (not on the sheet))

Each binder was assayed against T1, recombinant C-terminally His-tagged … (assay: SPR, Biacore X100; antibody captured by anti-human Fc on a CM5 chip, CD47 extracellular domain as analyte, 1:1 fit).
Experimental: as §1

How did the Kd turn out when B7 was run?
Its Kd is 0.97 µM.

And the koff?
The koff was 0.48 s⁻¹.

What about the kon of the same binder?
The kon was 490000 M⁻¹ s⁻¹.

B8 was tested. Which Kd did it give?
The Kd was 0.17 µM.

And the koff?
Its koff is 0.13 s⁻¹.

What about the kon of the same binder?
Its kon is 760000 M⁻¹ s⁻¹.

Which results are given for B9?
Kd: 1.31 µM; koff: 0.32 s⁻¹; kon: 250000 M⁻¹ s⁻¹

For B10, which Kd is on record?
Its Kd is 0.219 µM.

And the koff?
The koff was 0.16 s⁻¹.

And the kon?
The kon was 720000 M⁻¹ s⁻¹.

Which results are given for B11?
Kd: 0.203 µM; koff: 0.36 s⁻¹; kon: 1.8e+06 M⁻¹ s⁻¹

With B12 as the binder, how does the Kd read?
Its Kd is 0.31 µM.

What about the koff of the same binder?
Its koff is 0.22 s⁻¹.

And the kon?
The kon was 710000 M⁻¹ s⁻¹.

The binders below were run against T1, recombinant C-terminally His-tagged … (assay: SPR, Biacore X100; format for the scFv not described).

Which Kd does the source give for B1 here?
Its Kd is 0.02 µM.

What follows are binders tested against recombinant C-terminally His-tagged human CD47 (extracellular domain) (human) (UniProt Q08722) (assay: SPR, Biacore X100; construct captured by anti-human Fc on a CM5 chip, CD47 extracellular domain as analyte, 1:1 fit).

B3 was tested. Which koff did it give?
The koff was 0.07 s⁻¹.

What about the kon of the same binder?
The kon was 660000 M⁻¹ s⁻¹.

Which koff does the source give for B4 here?
The koff was 0.14 s⁻¹.

And the kon?
The kon was 990000 M⁻¹ s⁻¹.

With B5 as the binder, how does the koff read?
Its koff is 0.13 s⁻¹.

What about the kon of the same binder?
The kon was 960000 M⁻¹ s⁻¹.

What follows are binders tested against recombinant C-terminally His-tagged human CD47 (extracellular domain) (human) (UniProt Q08722) (assay: SPR (affinity to CD47 as measured by SPR)).

With B14 as the binder, how does the Kd read?
The Kd was 0.568 µM.

For B15, which Kd is on record?
Its Kd is 0.659 µM.
